EP4725969A1 (Latticon (Suzhou) Biopharmaceuticals Co., Ltd., dated 2024)

How the values were obtained:
[1] = molecular target: T1, recombinant human HER4 extracellular domain (human, UniProt Q15303 26-651); experiment: ELISA, coated HER4 ECD
T1 construct: extracellular domain
T1 sequence (looked up): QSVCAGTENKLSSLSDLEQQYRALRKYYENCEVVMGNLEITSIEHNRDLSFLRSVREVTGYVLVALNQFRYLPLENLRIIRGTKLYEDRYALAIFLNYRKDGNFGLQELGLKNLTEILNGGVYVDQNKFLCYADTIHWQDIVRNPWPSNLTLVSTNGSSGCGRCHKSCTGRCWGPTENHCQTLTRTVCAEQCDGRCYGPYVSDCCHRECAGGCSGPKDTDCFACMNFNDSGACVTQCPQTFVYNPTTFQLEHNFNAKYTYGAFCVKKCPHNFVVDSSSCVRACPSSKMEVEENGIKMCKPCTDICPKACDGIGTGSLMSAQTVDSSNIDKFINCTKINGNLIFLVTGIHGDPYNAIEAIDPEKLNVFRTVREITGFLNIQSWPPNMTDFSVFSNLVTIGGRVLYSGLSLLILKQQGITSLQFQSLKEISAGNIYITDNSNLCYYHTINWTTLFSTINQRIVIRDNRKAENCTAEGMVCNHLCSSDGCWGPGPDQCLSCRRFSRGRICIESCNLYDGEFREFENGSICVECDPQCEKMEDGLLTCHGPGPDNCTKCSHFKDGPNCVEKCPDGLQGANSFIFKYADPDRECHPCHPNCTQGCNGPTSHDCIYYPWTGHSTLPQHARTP

FcγRIIa (167H) = molecular target: T2, FcγRIIa (167H) (UniProt P12318 36-218, limits assumed); experiment: BLI (ForteBio)
T2 sequence (looked up): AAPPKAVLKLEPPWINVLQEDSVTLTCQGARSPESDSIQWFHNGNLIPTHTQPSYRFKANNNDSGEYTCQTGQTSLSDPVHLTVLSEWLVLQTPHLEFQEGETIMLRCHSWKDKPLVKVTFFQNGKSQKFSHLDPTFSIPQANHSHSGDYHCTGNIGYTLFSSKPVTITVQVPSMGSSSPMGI

FcγRI = molecular target: T3, FcγRI (UniProt P12314 16-288, limits assumed); experiment: BLI (ForteBio)
T3 construct: also called CD64

FcγRIIIa (176V) = FcγRIIIa (176V) (UniProt P08637 17-208, limits assumed); experiment: BLI (ForteBio)
FcγRIIIa (176F) = FcγRIIIa (176F) (UniProt P08637 17-208); experiment: BLI (ForteBio)
[2] = molecular target: T4, recombinant human EGFR extracellular domain (human, UniProt P00533 25-645); experiment: ELISA, coated EGFR ECD
T4 construct: extracellular domain

[3] = molecular target: T5, recombinant human HER3 extracellular domain (human, UniProt P21860 20-643); experiment: ELISA, coated HER3 ECD
T5 construct: extracellular domain

Measured: binding result

Sequence of FcγRIIIa (176F) (P08637 17-208 limits assumed): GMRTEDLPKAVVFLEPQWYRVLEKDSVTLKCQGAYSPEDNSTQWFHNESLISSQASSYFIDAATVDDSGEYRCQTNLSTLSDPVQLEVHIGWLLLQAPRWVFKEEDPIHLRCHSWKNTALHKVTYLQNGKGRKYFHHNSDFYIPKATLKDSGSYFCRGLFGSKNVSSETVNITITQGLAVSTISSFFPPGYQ
T3 sequence (P12314 16-288 limits assumed): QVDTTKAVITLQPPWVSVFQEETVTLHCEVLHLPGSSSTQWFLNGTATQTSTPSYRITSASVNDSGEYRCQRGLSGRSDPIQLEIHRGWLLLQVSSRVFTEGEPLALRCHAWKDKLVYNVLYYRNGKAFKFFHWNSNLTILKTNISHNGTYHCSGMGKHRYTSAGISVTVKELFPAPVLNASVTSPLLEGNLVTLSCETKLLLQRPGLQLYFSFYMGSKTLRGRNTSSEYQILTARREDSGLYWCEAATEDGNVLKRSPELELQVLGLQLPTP
Sequence of FcγRIIIa (176V) (P08637 17-208 F176V limits assumed): as the sequence (P08637 17-208 limits assumed) above, with F160V counted along it

B1: 04BS-1123-ST06 (bispecific antibody)
heavy: QVQLVESGGGLVQPGGSLRLSCAASGFTYSSYGMSWVRQAPGKGLEWVASISGGGSYTKYVDKVKGRFTISRDNSKNTLYLQMNSLRAEDTAVYYCARDYVGFFDVWGQGTLVTVSSGGGGSQVQLVQSGSELKKPGASVKVSCKASGYTFTDYSMHWVRQAPGQGLEWMGWINTGTGEPTYADDFKGRFTISRDTSKSTAYLQISSLKAEDTAVYYCVRVGRYDYAMDYWGQGTTVTVSSASTKGPSVFPLAPSSKSTSGGTAALGCLVKDYFPEPVTVSWNSGALTSGVHTFPAVLQSSGLYSLSSVVTVPSSSLGTQTYICNVNHKPSNTKVDKRVEPKSCDKTHTCPPCPAPEFEGGPSVFLFPPKPKDTLMISRTPEVTCVVVDVSHEDPEVKFNWYVDGVEVHNAKTKPREEQYNSTYRVVSVLTVLHQDWLNGKEYKCKVSNKALPASIEKTISKAKGQPREPQVYTLPPSRDELTKNQVSLTCLVKGFYPSDIAVEWESNGQPENNYKTTPPVLDSDGSFFLYSKLTVDKSRWQQGNVFSCSVMHEALHNHYTQKSLSLSPGK
light: DIQMTQSPSSLSASVGDRVTITCRSSQSLVHSNRNTYLHWYQQKPGKAPKLLIYKVSNRFSGVPSRFSGSGSGTDFTLTISSLQPEDFATYFCSQSTHVPYTFGQGTKVEIKGGGGSGGGGSGGGGSDIQMTQSPSSLSASVGDRVTITCRASQDVYTAVAWYQQKPGKAPKLLINLASSRPTGVPSRFSGSGSGTDFTLTISSLQPEDFATYYCQQYYSTPPTFGGGTKVEIKRTVAAPSVFIFPPSDEQLKSGTASVVCLLNNFYPREAKVQWKVDNALQSGNSQESVTEQDSKDSTYSLSSTLTLSKADYEKHKVYACEVTHQGLSSPVTKSFNRGEC
notes: also called anti-HER2 biparatopic antibody 04BS-1123-ST06
no binding: all assays above
